Consider 24 molecules from patent US20250109203A1.

The target in the assay is human γδ TCR (Vγ9Vδ2) on human Vδ2+ γδ T cells (human) (UniProt A0JD36). The assay can be described thus: flow cytometry on expanded human Vδ2+ γδ T cells, nonlinear fit. A general note: A flow cytometer gives signals particle by particle.

B1: hu1D7v80 VHH-hIgG1 Fc-NNT (monomeric) (VHH)
VHH: EVQLLESGGGEVQPGGSLRLSCVASRGKISQYRMGWYRQAPGKERELVAHISNTGDAAEYVDSVKDRFTISRDSTKNALYLQMSSLRAEDTAVYKCNVVEDILAWGQGTLVTVRP
Take B1: the Kd (in general, the free concentration of one partner at which half of the binding sites on the other are occupied at equilibrium, for simple one-to-one binding) is 646 nM.

B2: hu1D7v91 VHH-hIgG1 Fc-NNT (monomeric) (VHH)
VHH: EVQLLESGGGEVQPGGSLRLSCVASRGKISQYRMGWYRQAPGKERELVAHISNTGDAAEYVDSVKDRFTISRDSTKNALYLQMSSLRAEDTAVYKCGGVEDILAWGQGTLVTVRP
With B2, the Kd was 154 nM.

B3: hu1D7v8 VHH-hIgG1 Fc-NNT (monomeric) (VHH)
VHH: EVQLLESGGGEVQPGGSLRLSCVASRGKISQYAMGWYRQAPGKGLEWVAHISNTGDAAEYVDSVKGRFTISRDSTKNAVYLQMSSLRAEDTAVYKCNSVEDILAWGQGTLVTVKP
Turning to B3, the Kd worked out at 7870 nM.

B4: 1D7v124 VHH-hIgG1 Fc-NNT (monomeric) (VHH)
VHH: EVQLLESGGGEVQPGGSLRLSCVASRGKISQYRMGWYRQAPGKERELVAHISNTGDAAEYVDGVKDRFTISRDSTKNALYLQMSSLRAEDTAVYKCNSVEDILAWGQGTLVTVRP
B4 came in with a Kd of 72.2 nM.

B5: hu1D7v89 VHH-hIgG1 Fc-NNT (monomeric) (VHH)
VHH: EVQLLESGGGEVQPGGSLRLSCVASRGKISQYRMGWYRQAPGKERELVAHISNTGDAAEYVDSVKDRFTISRDSTKNALYLQMSSLRAEDTAVYKCQGVEDILAWGQGTLVTVRP
As for B5, the Kd is 1950 nM.

B6: hu1D7v102 VHH-hIgG1 Fc-NNT (monomeric) (VHH)
VHH: EVQLLESGGGEVQPGGSLRLSCVASRGKISQYRMGWYRQAPGKELEWVAHISNTGDAAEYVDSVKDRFTISRDSTKNALYLQMSSLRAEDTAVYKCNTVEDILAWGQGTLVTVRP
For B6, the Kd amounted to 18 nM.

B7: 1D7v113 VHH-hIgG1 Fc-NNT (monomeric) (VHH)
VHH: EVQLLESGGGEVQPGGSLRLSCVASRGKISQYRMGWYRQAPGKERELVAHISNTGDAAEYVDLVKDRFTISRDSTKNALYLQMSSLRAEDTAVYKCNSVEDILAWGQGTLVTVRP
B7 gave a Kd of 192 nM.

B8: hu1D7v83 VHH-hIgG1 Fc-NNT (monomeric) (VHH)
VHH: EVQLLESGGGEVQPGGSLRLSCVASRGKISQYRMGWYRQAPGKERELVAHISNTGDAAEYVDGVKDRFTISRDSTKNALYLQMSSLRAEDTAVYKCNSVEDILAWGQGTLVTVRP
Molecule B8 displayed a Kd of 36.3 nM.

B9: hu1D7v87 VHH-hIgG1 Fc-NNT (monomeric) (VHH)
VHH: EVQLLESGGGEVQPGGSLRLSCVASRGKISQYRMGWYRQAPGKERELVAHISNTGDAAEYVQSVKDRFTISRDSTKNALYLQMSSLRAEDTAVYKCNSVEDILAWGQGTLVTVRP
As to B9, the Kd is 44.9 nM.

B10: 1D7v125 VHH-hIgG1 Fc-NNT (monomeric) (VHH)
VHH: EVQLLESGGGEVQPGGSLRLSCVASRGKISQYRMGWYRQAPGKERELVAHISNTGDAAEYVEGVKDRFTISRDSTKNALYLQMSSLRAEDTAVYKCNSVEDILAWGQGTLVTVRP
The molecule B10 gave a Kd of 59 nM.

B11: hu1D7v93 VHH-hIgG1 Fc-NNT (monomeric) (VHH)
VHH: EVQLLESGGGEVQPGGSLRLSCVASRGKISQYRMGWYRQAPGKERELVAHISNTGDAAEYVDSVKDRFTISRDSTKNALYLQMSSLRAEDTAVYKCNQVEDILAWGQGTLVTVRP
B11 yielded an equilibrium dissociation constant (Kd) of 1090 nM.

B12: hu1D7v92 VHH-hIgG1 Fc-NNT (monomeric) (VHH)
VHH: EVQLLESGGGEVQPGGSLRLSCVASRGKISQYRMGWYRQAPGKERELVAHISNTGDAAEYVDSVKDRFTISRDSTKNALYLQMSSLRAEDTAVYKCQNVEDILAWGQGTLVTVRP
Molecule B12 returned a Kd of 104 nM.

B13: hu1D7v90 VHH-hIgG1 Fc-NNT (monomeric) (VHH)
VHH: EVQLLESGGGEVQPGGSLRLSCVASRGKISQYRMGWYRQAPGKERELVAHISNTGDAAEYVDSVKDRFTISRDSTKNALYLQMSSLRAEDTAVYKCSGVEDILAWGQGTLVTVRP
The molecule B13 had a Kd of 95.6 nM.

B14: 1D7v112 VHH-hIgG1 Fc-NNT (monomeric) (VHH)
VHH: EVQLLESGGGEVQPGGSLRLSCVASRGKISQYRMGWYRQAPGKERELVAHISNTGDAAEYVDVVKDRFTISRDSTKNALYLQMSSLRAEDTAVYKCNSVEDILAWGQGTLVTVRP
In the case of B14, the Kd worked out at 226 nM.

B15: hu1D7v81 VHH-hIgG1 Fc-NNT (monomeric) (VHH)
VHH: EVQLLESGGGEVQPGGSLRLSCVASRGKISQYRMGWYRQAPGKERELVAHISNTGDAAEYVDSVKDRFTISRDSTKNALYLQMSSLRAEDTAVYKCASVEDILAWGQGTLVTVRP
As to B15, the Kd came out at 843 nM.

B16: hu1D7v98 VHH-hIgG1 Fc-NNT (monomeric) (VHH)
VHH: EVQLLESGGGEVQPGGSLRLSCVASRGKISQYRMGWYRQAPGKERELVAHISNTGDAAEYVLSVKDRFTISRDSTKNALYLQMSSLRAEDTAVYKCNSVEDILAWGQGTLVTVRP
Consider B16, for which the Kd came out at 114 nM.

B17: hu1D7v96 VHH-hIgG1 Fc-NNT (monomeric) (VHH)
VHH: EVQLLESGGGEVQPGGSLRLSCVASRGKISQYRMGWYRQAPGKERELVAHISNTGDAAEYVYSVKDRFTISRDSTKNALYLQMSSLRAEDTAVYKCNSVEDILAWGQGTLVTVRP
In turn, B17 had a Kd of 191 nM.

B18: hu1D7v84 VHH-hIgG1 Fc-NNT (monomeric) (VHH)
VHH: EVQLLESGGGEVQPGGSLRLSCVASRGKISQYRMGWYRQAPGKERELVAHISNTGDAAEYVEGVKDRFTISRDSTKNALYLQMSSLRAEDTAVYKCNSVEDILAWGQGTLVTVRP
B18 showed a Kd of 43.6 nM.

B19: 1D7v139 VHH-hIgG1 Fc-NNT (monomeric) (VHH)
VHH: EVQLLESGGGEVQPGGSLRLSCVASRGKISQYRMGWYRQAPGKERELVAHISNTGDAAEYVLSVKDRFTISRDSTKNALYLQMSSLRAEDTAVYKCNSVEDILAWGQGTLVTVRP
B19 showed a Kd of 341 nM.

B20: hu1D7v6 VHH-hIgG1 Fc-NNT (monomeric) (VHH)
VHH: EVQLLESGGGEVQPGGSLRLSCVASRGKFSQYRMGWYRQAPGKGLEWVAHISNTGDAAEYVDSVKGRFTISRDSTKNAVYLQMSSLRAEDTAVYKCNSVEDILAWGQGTLVTVKP
B20 showed a Kd of 35.1 nM.

B21: hu1D7v100 VHH-hIgG1 Fc-NNT (monomeric) (VHH)
VHH: EVQLLESGGGEVQPGGSLRLSCVASRGKISQYRMGWYRQAPGKERELVAHISNTGDAAEYVDSVKDRFTISRDSTKNALYLQMSSLRAEDTAVYYCNSVEDILAWGQGTLVTVRP
The molecule B21 displayed a Kd of 61.9 nM.

B22: hu1D7v94 VHH-hIgG1 Fc-NNT (monomeric) (VHH)
VHH: EVQLLESGGGEVQPGGSLRLSCVASRGKISQYRMGWYRQAPGKERELVAHISNTGDAAEYVDSVKDRFTISRDSTKNALYLQMSSLRAEDTAVYKCSNVEDILAWGQGTLVTVRP
In the case of B22, the Kd is 752 nM.

B23: hu1D7v88 VHH-hIgG1 Fc-NNT (monomeric) (VHH)
VHH: EVQLLESGGGEVQPGGSLRLSCVASRGKISQYRMGWYRQAPGKERELVAHISNTGDAAEYVQGVKDRFTISRDSTKNALYLQMSSLRAEDTAVYKCNSVEDILAWGQGTLVTVRP
Consider B23, for which the Kd turned out to be 61.5 nM.

B24: hu1D7v101 VHH-hIgG1 Fc-NNT (monomeric) (VHH)
VHH: EVQLLESGGGEVQPGGSLRLSCVASRGKISQYRMGWYRQAPGKERELVAHISNTGDAAEYVDSVKDRFTISRDSTKNALYLQMSSLRAEDTAVYKCAAVEDILAWGQGTLVTVRP
For B24, the Kd worked out at 270 nM.
